Experimental findings from patent US20120251547A1 (Amgen, published 2012) are described below.

Assay [1] addresses T1, huIL-17RA-FLAG-polyHis (human, UniProt Q96F46 33-320).
T1 construct: also called IL-17RA-FLAG-pHis; wild-type IL-17RA
Put plainly: binning; IL-17RA held by bead mAb A.
Description: (§1) The method employed the Bio-Plex Workstation and software (BioRad, Hercules, Calif.), as well as reagents from Luminex® Corp. (Austin, Tex.). […] The mouse-anti-human IgG coating was evaluated and the beads quantified by FACS. Each bead code was separately incubated with 10 ul of anti-IL-17RA antibody for 1 hour at room temperature and then washed. The beads were pooled and then dispensed to a 96-well filter plate (Millipore, Billerica, Mass., product #MSBVN1250). […] The PE-tagged monovalent antibody will detect the presence of the second mAb added to the well, but not the first mAb captured by the monovalent mouse-anti-human IgG antibody. Beads were resuspended in 120u1 PBSAT and at least 100 events/bead code were collected on the Bio-Plex workstation as per the manufacturer's recommended protocol.

The target in assay [2] is T1, huIL-17RA-FLAG-polyHis. Put plainly: binning; IL-17RA held by bead mAb B.
Description: as §1
In assay [3] the target is T1, huIL-17RA-FLAG-polyHis. Description: binning; IL-17RA held by bead mAb C.
Assay [4] has as its target T1, huIL-17RA-FLAG-polyHis. Put plainly: binning; IL-17RA held by bead mAb D.
Description: as §1
The target in assay [5] is T1, huIL-17RA-FLAG-polyHis. Description: binning; IL-17RA held by bead mAb E.
Assay [6] deals with T1, huIL-17RA-FLAG-polyHis. Description: binning; IL-17RA held by bead mAb F.
Description: as §1
In assay [7] the target is T1, huIL-17RA-FLAG-polyHis. Description: binning; IL-17RA held by bead mAb H.
Description: as §1
The target in assay [8] is T1, huIL-17RA-FLAG-polyHis. Put plainly: binning; IL-17RA held by bead mAb M.
Assay [9] deals with T1, huIL-17RA-FLAG-polyHis. Put plainly: binning; IL-17RA held by bead mAb P.
Assay [10] concerns the target T1, huIL-17RA-FLAG-polyHis. Put plainly: binning; IL-17RA held by bead mAb G.
Description: as §1
The target of assay [11] is T1, huIL-17RA-FLAG-polyHis. Put plainly: binning; IL-17RA held by bead mAb I.
The target in assay [12] is T1, huIL-17RA-FLAG-polyHis. Description: binning; IL-17RA held by bead mAb J.
Assay [13] addresses T1, huIL-17RA-FLAG-polyHis. Description: binning; IL-17RA held by bead mAb K.
Description: as §1
For assay [14], the target named is T1, huIL-17RA-FLAG-polyHis. Description: binning; IL-17RA held by bead mAb L.
Description: as §1
Assay [15] deals with T1, huIL-17RA-FLAG-polyHis. Description: binning; IL-17RA held by bead mAb N.
Description: The method employed the Bio-Plex Workstation and software (BioRad, Hercules, Calif.), as well as reagents from Luminex® Corp. (Austin, Tex.). The manufacturers' basic protocols were followed except where noted below (see www.bio-rad.com and www.luminexcorp.com for details). […] The mouse-anti-human IgG coating was evaluated and the beads quantified by FACS. Each bead code was separately incubated with 10 ul of anti-IL-17RA antibody for 1 hour at room temperature and then washed. The beads were pooled and then dispensed to a 96-well filter plate (Millipore, Billerica, Mass., product #MSBVN1250). […] The PE-tagged monovalent antibody will detect the presence of the second mAb added to the well, but not the first mAb captured by the monovalent mouse-anti-human IgG antibody. Beads were resuspended in 120u1 PBSAT and at least 100 events/bead code were collected on the Bio-Plex workstation as per the manufacturer's recommended protocol.
For assay [16], the target named is T1, huIL-17RA-FLAG-polyHis. Description: binning; IL-17RA held by bead mAb O.
Description: as §1
For assay [17], the target named is T1, huIL-17RA-FLAG-polyHis. Put plainly: binning; IL-17RA held by bead mAb Q.
Description: as §1
The target of assay [18] is T1, huIL-17RA-FLAG-polyHis. Description: binning; IL-17RA held by bead mAb R.
Description: as §1
Assay [19] has as its target T2, human IL-17RA, full-length, on cells (human, UniProt Q96F46 33-866). Put plainly: cell-based or functional assay.
The target of assay [20] is T2, human IL-17RA, full-length, on cells. Description: cell-based or functional assay. The source holds these as a separate data set.
Assay [21] addresses T3, cynomolgus IL-17RA, on cells (cynomolgus).
T3 construct: whole, on cells; also called CHO-cynoIL-17RA; cyno IL-17RA+ CHO cells
Description: FACS competition: non-clonal supernatant inhibiting biotin-huIL-17A (competitor) binding to cyno IL-17RA+ CHO cells.

B1: AMH10/AML10 (antibody, IgG2, V domains shown)
VH: QVQLQESGPGLVKPSQTLSLTCTVSGGSISSGGYYWSWIRQHPGKGLEWIGYIYFSGSAYYNPSLKSRVAISVDTSKNQFSLKLSSVTAADTAVYYCAREYYDSSGYPDAFDIWGQGTMVTVSS
VL: DIQMTQSPSSVSASVGDRVTITCRASQGIRSWLAWYQQKPGKAPKLLIFAASSLQSGVPSRFSGSGSGTEFTLTISSLQPEDFATYYCQQANNFPRTFGQGTKVEIK
notes: human mAb from IgG2 XenoMouse mice; also called AM-10; antibody F
In the case of B1, the “normalized MFI” value with huIL-17RA-FLAG-polyHis [1] is 114; with huIL-17RA-FLAG-polyHis [2] it was 545; with huIL-17RA-FLAG-polyHis [3], 253; in the assay with huIL-17RA-FLAG-polyHis [4] it was 179; in the assay with huIL-17RA-FLAG-polyHis [5] it was 175; with huIL-17RA-FLAG-polyHis [6], 187. Further, the “normalized MFI” value with huIL-17RA-FLAG-polyHis [7] turned out to be 3970; with huIL-17RA-FLAG-polyHis [8], 1020; in the assay with huIL-17RA-FLAG-polyHis [9] it was 1720; with huIL-17RA-FLAG-polyHis [10], 342; with huIL-17RA-FLAG-polyHis [11], 3110; in the assay with huIL-17RA-FLAG-polyHis [12], 2120. Moreover, the “normalized MFI” value with huIL-17RA-FLAG-polyHis [13] was 4110; with huIL-17RA-FLAG-polyHis [14], 1720; in the assay with huIL-17RA-FLAG-polyHis [15] it was 1510; with huIL-17RA-FLAG-polyHis [16] it was 2630; with huIL-17RA-FLAG-polyHis [17], 1650; with huIL-17RA-FLAG-polyHis [18] it was 1120.

B2: AMH4/AML4 (antibody, IgG2, V domains shown)
VH: QVQLVESGGGVVQPGRSLRLSCAASGINFSSYGMHWVRQAPGKGLEWVAVIWYDGSNKHYADSVKGRFTISRDNSKNTLYLQMNSLRAEDTAVYYCARDTGVYWGQGTLVTVSS
VL: not shown
notes: human mAb from IgG2 XenoMouse mice; also called AM-4; antibody B
For B2, the “normalized MFI” value with huIL-17RA-FLAG-polyHis [1] was -326; with huIL-17RA-FLAG-polyHis [2] it was 453; in the assay with huIL-17RA-FLAG-polyHis [3], 150; with huIL-17RA-FLAG-polyHis [4], 213; with huIL-17RA-FLAG-polyHis [5] it was 182; with huIL-17RA-FLAG-polyHis [6] it was 173. The “normalized MFI” value with huIL-17RA-FLAG-polyHis [7] amounted to 6790; with huIL-17RA-FLAG-polyHis [8], 1300; in the assay with huIL-17RA-FLAG-polyHis [9] it was 5020; with huIL-17RA-FLAG-polyHis [10], 235; with huIL-17RA-FLAG-polyHis [11], 3710; with huIL-17RA-FLAG-polyHis [12], 1400. Further, the “normalized MFI” value with huIL-17RA-FLAG-polyHis [13] was 4970; with huIL-17RA-FLAG-polyHis [14] it was 1980; with huIL-17RA-FLAG-polyHis [15], 1950; with huIL-17RA-FLAG-polyHis [16], 2640; in the assay with huIL-17RA-FLAG-polyHis [17] it was 8280; with huIL-17RA-FLAG-polyHis [18], 5880.

B3: AMH19/AML19 (antibody, IgG2, V domains shown)
VH: QVQLVQSGAEVKKPGASVKVSCKASGYTLTSYGISWVRQAPGQGLEWMGWISAYSGNTKYAQKFQGRVTMTTDTSTSTAYMELRSLRSDDTAVYYCARRQLALDYWGQGTLVTVSS
VL: EIVMTQSPATLSVSPGERATLSCRASQSISSNLAWYQQKPGQAPRLLIYGASTRATGIPARFSDNGSGTEFTLTISSLQSEDFAVYFCQQYDTWPLTFGGGTKVEIK
On to B3, for which, in [19], the “IL-17A/HFF bioassay IC50, subclone 10” value is 0.22 nM; the “IL-17A/HFF bioassay IC50, subclone 11” value came to 1.1 nM; the “IL-17A/HFF bioassay IC50, subclone 12” value came to 0.5 nM. In assay [20], the “IL-17A/HFF IC50” value turned out to be 0.2 nM, the “IL-17A/lung fibroblast IC50” value was 0.22 nM and the “IL-17F/HFF IC50” value came to 0.087 nM.

B4: AMH22/AML22 (antibody, IgG2, V domains shown)
VH: QVQLVQSGAEVKKPGASVKVSCKASGYTFTRYGISWVRQAPGQGLEWMGWISAYSGNTNYAQKLQGRVTMTTDTSTSTAYMELRSLRSDDTAVYYCARRQLYFDYWGQGTLVTVSS
VL: EIVMTQSPATLSVSPGERVTLSCRASQSVSSNLAWFQQKPGQAPRPLIYDASTRAAGIPARFSGSGSGTDFTLTISSLQSEDFAVYYCQQYDNWPLTFGGGTKVEIK
notes: human mAb from IgG2 XenoMouse mice; also called AM-22; antibody I
B4 had an MFI in assay [21] of 18.
